In patent US20230374116A1 (ROSALIND FRANKLIN INSTITUTE, published 2023):

Key:
[1] = molecular target: T1, SARS-CoV-2 receptor-binding domain fused to hIgG1 Fc (SARS-CoV-2 (Wuhan/Victoria), UniProt P0DTC2 330-532); assay: SPR, trimer analyte, RBD ligand
[2] = molecular target: T2, Spike protein on live SARS-CoV-2 Victoria strain (SARS-CoV-2 (Victoria), UniProt P0DTC2 14-1273); assay: cell-based or functional assay
[3] = molecular target: T3, SARS-CoV-2 receptor-binding domain (amino acids 330-532), prototypical Wuhan/Victoria (SARS-CoV-2 (Wuhan/Victoria), UniProt P0DTC2 330-532); assay: SPR, RBD binding kinetics
[4] = molecular target: T3, SARS-CoV-2 receptor-binding domain …; assay: SPR
[5] = molecular target: T3, SARS-CoV-2 receptor-binding domain …; assay: SPR, VHH analyte, biotinylated RBD ligand
[6] = molecular target: T3, SARS-CoV-2 receptor-binding domain …; assay: SPR, VHH analyte over immobilised RBD
[7] = molecular target: T1, SARS-CoV-2 receptor-binding domain …; assay: SPR, VHH analyte over immobilised RBD
[8] = molecular target: T1, SARS-CoV-2 receptor-binding domain …; assay: SPR, VHH analyte, RBD-Fc ligand
[9] = molecular target: T3, SARS-CoV-2 receptor-binding domain …; assay: SPR, RBD analyte, VHH_H6-Fc ligand
[10] = molecular target: T2, Spike protein on live SARS-CoV-2 …; assay: cell-based or functional assay; remark: listed apart in the source

B1: A8 trimer (bispecific antibody)
chain: QVQLVESGGGLVQAGGSLRLSCAASGGTFSTAAMGWFRQAPGEERECVASIGWRGVRTWYADSVKGRFTISRDNPQNTVYLQMNNLKSGDTAVYYCAASVGNYGLPWAHFEYDFWGQGIQVTVSSGSGSGSQVQLVESGGGLVQAGGSLRLSCAASGGTFSTAAMGWFRQAPGEERECVASIGWRGVRTWYADSVKGRFTISRDNPQNTVYLQMNNLKSGDTAVYYCAASVGNYGLPWAHFEYDFWGQGIQVTVSSGSGSGSQVQLVESGGGLVQAGGSLRLSCAASGGTFSTAAMGWFRQAPGEERECVASIGWRGVRTWYADSVKGRFTISRDNPQNTVYLQMNNLKSGDTAVYYCAASVGNYGLPWAHFEYDFWGQGTQVTVSSKHHHHHH
[1]
  Kd: 0.005 nM
  T1/2: 4.63 h
[2]
  ND 50 MN assay, live virus: 0.09 nM

B2: C1-SUMO-H3-Fc (Fc fusion)
chain: QVQLVESGGGLVQPGGSLRLSCAASGFTNDFYSIAWFRQAPGKEREGVSWLSVSDNTPTYVDSVKDRFTISRHNANNTVYLQMNMLKPEDTAIYYCAAGRFAGRDTWPSSYDYWGQGTQVTVSSGSGSGSDSEVNQEAKPEVKPEVKPETHINLKVSDGSSEIFFKIKKTTPLRRLMEAFAKRQGKEMDSLRFLYDGIRIQADQTPEDLDMEDNDIIEAHREQIGSGSGSQVQLVESGGGLVKTGGSLRLSCAASGRTFSTYSMGWFRQAPGKEREFVAGMRWTGSSTFYSDSVKGRFTVSRNNAKDTVYLHMNSLKPEDTAVYYCAITTIVRAYYTEYTEADFGSWGQGTQVTVS
notes: also called C1-GSGSGS-SUMO-GSGSGS-H3
[3]
  Kd: 0.011 nM
  T1/2: 4.1 h
  koff: 4.7e-05 s⁻¹
  kon: 4.3e+06 M⁻¹ s⁻¹
[4]
  fold increase in affinity on combining the VHHs: ~40 fold

B3: F2-SUMO-C5-Fc (Fc fusion)
chain: QVQLVESGGGLVQAGGSLRLACIASGRTFHSYVMAWFRQAPGKEREFVAAISWSSTPTYYGESVKGRFTISRDNAKNTVYLQMNRLKPEDTAVYFCAADRGESYYYTRPTEYEFWGQGTQVTVSSGSGSGSDSEVNQEAKPEVKPEVKPETHINLKVSDGSSEIFFKIKKTTPLRRLMEAFAKRQGKEMDSLRFLYDGIRIQADQTPEDLDMEDNDIIEAHREQIGSGSGSQVQLVESGGGSVQAGGSLTLSCVASGVTLGRHAIGWFRQAPGKERERVSCIRTFDGITSYVESTKGRFTISSNNAMNTVYLQMNSLKPEDTAVYFCALGVTAACSDNPYFWGQGTQVTVSS
notes: also called F2-GSGSGS-SUMO-GSGSGS-C5
[3]
  Kd: 0.00075 nM
  T1/2: 11 h
  koff: 1.7e-05 s⁻¹
  kon: 2.3e+07 M⁻¹ s⁻¹
[4]
  fold increase in affinity on combining the VHHs: ~85 fold

B4: C1 trimer (VHH)
chain: QVQLVESGGGLVQPGGSLRLSCAASGFTNDFYSIAWFRQAPGKEREGVSWLSVSDNTPTYVDSVKDRFTISRHNANNTVYLQMNMLKPEDTAIYYCAAGRFAGRDTWPSSYDYWGQGTQVTVSSGSGSGSQVQLVESGGGLVQPGGSLRLSCAASGFTNDFYSIAWFRQAPGKEREGVSWLSVSDNTPTYVDSVKDRFTISRHNANNTVYLQMNMLKPEDTAIYYCAAGRFAGRDTWPSSYDYWGQGTQVTVSSGSGSGSQVQLVESGGGLVQPGGSLRLSCAASGFTNDFYSIAWFRQAPGKEREGVSWLSVSDNTPTYVDSVKDRFTISRHNANNTVYLQMNMLKPEDTAIYYCAAGRFAGRDTWPSSYDYWGQGTQVTVSS
[1]
  Kd: 0.053 nM
  T1/2: 4.03 h
  koff: 4.8e-05 s⁻¹
  kon: 900000 M⁻¹ s⁻¹
[2]
  ND 50 MN assay, live virus: 4.9 nM

B5: F2 (VHH)
VHH: QVQLVESGGGLVQAGGSLRLACIASGRTFHSYVMAWFRQAPGKEREFVAAISWSSTPTYYGESVKGRFTISRDNAKNTVYLQMNRLKPEDTAVYFCAADRGESYYYTRPTEYEFWGQGTQVTVSS
notes: also called VHH F2
[5]
  Kd: 0.04 nM
[6]
  Kd: 0.04 nM

B6: H3 trimer (VHH)
chain: QVQLVESGGGLVKTGGSLRLSCAASGRTFSTYSMGWFRQAPGKEREFVAGMRWTGSSTFYSDSVKGRFTVSRNNAKDTVYLHMNSLKPEDTAVYYCAITTIVRAYYTEYTEADFGSWGQGTQVTVSSGAVLAPQVQLVESGGGLVKTGGSLRLSCAASGRTFSTYSMGWFRQAPGKEREFVAGMRWTGSSTFYSDSVKGRFTVSRNNAKDTVYLHMNSLKPEDTAVYYCAITTIVRAYYTEYTEADFGSWGQGTQVTVSSGSGSGSQVQLVESGGGLVKTGGSLRLSCAASGRTFSTYSMGWFRQAPGKEREFVAGMRWTGSSTFYSDSVKGRFTVSRNNAKDTVYLHMNSLKPEDTAVYYCAITTIVRAYYTEYTEADFGSWGQGTQVTVSS
[1]
  Kd: 0.0003 nM
  T1/2: 5.82 h
  koff: 3.3e-05 s⁻¹
  kon: 1.2e+08 M⁻¹ s⁻¹
[2]
  ND 50 MN assay, live virus: 0.4 nM

B7: C1-SUMO-H11-H4-Fc (Fc fusion)
chain: QVQLVESGGGLVQPGGSLRLSCAASGFTNDFYSIAWFRQAPGKEREGVSWLSVSDNTPTYVDSVKDRFTISRHNANNTVYLQMNMLKPEDTAIYYCAAGRFAGRDTWPSSYDYWGQGTQVTVSSGSGSGSDSEVNQEAKPEVKPEVKPETHINLKVSDGSSEIFFKIKKTTPLRRLMEAFAKRQGKEMDSLRFLYDGIRIQADQTPEDLDMEDNDIIEAHREQIGSGSGSQVQLVESGGGLMQAGGSLRLSCAVSGRTFSTAAMGWFRQAPGKEREFVAAIRWSGGSAYYADSVKGRFTISRDKAKNTVYLQMNSLKYEDTAVYYCAQTHYVSYLLSDYATWPYDYWGQGTQVTVSS
notes: also called C1-GSGSGS-SUMO-GSGSGS-H11-H4
[3]
  Kd: 0.013 nM
  T1/2: 2.8 h
  koff: 6.8e-05 s⁻¹
  kon: 5.1e+06 M⁻¹ s⁻¹
[4]
  fold increase in affinity on combining the VHHs: ~40 fold

B8: B12 (VHH)
VHH: QVQLVESGGGFVQPGGSLRLSCAVSGGTFSTYGMGWFRQAPGKEREIVAAIRRSGSTYYADSVRGRFTISRDNAKNSVLLQMNSLKPEDTAVYYCAARRAGREYEYWGQGTQVTVSS
notes: also called VHH B12
[7]
  Kd: 0.077 nM
  T1/2: 0.7 h
  koff: 0.00027 s⁻¹
  kon: 3.6e+06 M⁻¹ s⁻¹

B9: VHH_H6 (VHH)
VHH: QVQLVESGGGLVQPGGSLTLSCVASESSLAPYRVAWFRQAPGKEREGVSCISRDAHPTSTYYTASVKGRFTMSRDNAKNTVYLQMNSLKPSDTAVYYCATDLGGYCSDSNYPRAWWGQGTQVTVSS
[8]
  Kd: 0.472 nM
  T1/2: 0.517 h

B10: VHH_H6-Fc (Fc fusion)
chain: B9 VHH
[9]
  Kd: 0.261 nM

B11: C1-SUMO-C5-Fc (Fc fusion)
chain: QVQLVESGGGLVQPGGSLRLSCAASGFTNDFYSIAWFRQAPGKEREGVSWLSVSDNTPTYVDSVKDRFTISRHNANNTVYLQMNMLKPEDTAIYYCAAGRFAGRDTWPSSYDYWGQGTQVTVSSGSGSGSDSEVNQEAKPEVKPEVKPETHINLKVSDGSSEIFFKIKKTTPLRRLMEAFAKRQGKEMDSLRFLYDGIRIQADQTPEDLDMEDNDIIEAHREQIGSGSGSQVQLVESGGGSVQAGGSLTLSCVASGVTLGRHAIGWFRQAPGKERERVSCIRTFDGITSYVESTKGRFTISSNNAMNTVYLQMNSLKPEDTAVYFCALGVTAACSDNPYFWGQGTQVTVSS
notes: also called C1-GSGSGS-SUMO-GSGSGS-C5
[3]
  Kd: 0.00163 nM
  T1/2: 246 h
  koff: 4.9e-05 s⁻¹
  kon: 3e+07 M⁻¹ s⁻¹
[4]
  fold increase in affinity on combining the VHHs: ~240 fold

B12: H3 (VHH)
VHH: QVQLVESGGGLVKTGGSLRLSCAASGRTFSTYSMGWFRQAPGKEREFVAGMRWTGSSTFYSDSVKGRFTVSRNNAKDTVYLHMNSLKPEDTAVYYCAITTIVRAYYTEYTEADFGSWGQGTQVTVSS
[5]
  Kd: 0.025 nM
  T1/2: 0.583 h
[6]
  Kd: 0.025 nM
  T1/2: 0.583 h

B13: C5 trimer (VHH)
chain: QVQLVESGGGSVQAGGSLTLSCVASGVTLGRHAIGWFRQAPGKERERVSCIRTFDGITSYVESTKGRFTISSNNAMNTVYLQMNSLKPEDTAVYFCALGVTAACSDNPYFWGQGTQVTVSSGSGSGSQVQLVESGGGSVQAGGSLTLSCVASGVTLGRHAIGWFRQAPGKERERVSCIRTFDGITSYVESTKGRFTISSNNAMNTVYLQMNSLKPEDTAVYFCALGVTAACSDNPYFWGQGTQVTVSSGSGSGSQVQLVESGGGSVQAGGSLTLSCVASGVTLGRHAIGWFRQAPGKERERVSCIRTFDGITSYVESTKGRFTISSNNAMNTVYLQMNSLKPEDTAVYFCALGVTAACSDNPYFWGQGTQVTVSS
notes: also called trimeric C5 nanobody; C5-6GS-C5-6GS-C5
[1]
  Kd: 0.018 nM
  T1/2: 1.53 h
[2]
  ND 50 MN assay, live virus: 0.02 nM

B14: C1 (VHH)
VHH: QVQLVESGGGLVQPGGSLRLSCAASGFTNDFYSIAWFRQAPGKEREGVSWLSVSDNTPTYVDSVKDRFTISRHNANNTVYLQMNMLKPEDTAIYYCAAGRFAGRDTWPSSYDYWGQGTQVTVSS
[5]
  Kd: 0.615 nM
[6]
  Kd: 0.615 nM

B15: C5 (VHH)
VHH: QVQLVESGGGSVQAGGSLTLSCVASGVTLGRHAIGWFRQAPGKERERVSCIRTFDGITSYVESTKGRFTISSNNAMNTVYLQMNSLKPEDTAVYFCALGVTAACSDNPYFWGQGTQVTVSS
notes: also called VHH C5
[5]
  Kd: 0.099 nM
  T1/2: 0.2 h
[6]
  Kd: 0.099 nM
  T1/2: 0.2 h
[10]
  IC50, neutralisation of SARS-CoV2, micro-titre neutralisation assay: 32 nM
